Measurements taken from patent US12404607.

How the values were obtained:
Experiment in all cases: ELISA, antigen coated at 2 ug/mL
[1] = target: CoV-2 RBD (N354D) (SARS-CoV-2) (UniProt P0DTC2)
[2] = target: CoV-2 S (R683A, R685A) (SARS-CoV-2) (UniProt P0DTC2)
[3] = target: CoV-2 RBD (V367F) (SARS-CoV-2) (UniProt P0DTC2)
[4] = target: CoV-2 RBD (W436R) (SARS-CoV-2) (UniProt P0DTC2)
[5] = target: CoV-2 RBD (N354D, D364Y) (SARS-CoV-2) (UniProt P0DTC2)
[6] = target: CoV-2 S (D614G) (SARS-CoV-2) (UniProt P0DTC2)

| Substance | EC50 [1] [µg/mL] | EC50 [2] [µg/mL] | EC50 [3] [µg/mL] | EC50 [4] [µg/mL] | EC50 [5] [µg/mL] | EC50 [6] [µg/mL] |
| --- | --- | --- | --- | --- | --- | --- |
| rCIG (recombinant coronavirus-2 immune globulin; recombinant anti-coronavirus 19 hyperimmune gammaglobulin) | 0.07 | 0.09 | 0.07 | 0.07 | 0.08 | 0.05 |
| SARS CoV-2 mAb [SAD-S35] (Acro Biosystems) (antibody) | 0.04 | 0.05 | 0.04 | 0.04 | 0.05 | 0.03 |
